For one molecule, Kd and cellular uptake results are on record in patent US20170101442A1.

Ends that are not written are not given here.

Assay [1] addresses insulin-like growth factor 2 receptor (IGF2R) on rat hepatic stellate cells HSC-T6 (rat). The assay can be described thus: flow cytometry, 5-FAM labelled peptide titrated on HSC-T6 cells, 1 h at 37 C; apparent Kd.
The target is the same in assay [2]. The assay can be described thus: flow cytometry, uptake of 5-FAM labelled peptide by HSC-T6 cells, 1 h. (In general: A flow cytometer gives signals particle by particle.)

As for VHWDFRQWWQPS (also: 5-FAM label, position not given here) [Peptide-431], in assay [1], the Kd came out at 12.3 µM. In assay [2], the cellular uptake was 12%.
